assay: yeast display, Sf9 membrane polyspecificity reagent, FACS + sequencing; frameworks hold sequencing errors
Method in brief: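 Nanobodies came from a synthetic yeast display library in Saccharomyces cerevisiae BJ5465, induced with galactose for 36–48 hours and stained for 1 hour at 4 °C with 10% biotinylated, detergent-solubilized Sf9 membrane reagent. Cells were enriched on streptavidin microbeads and then FACS-sorted, with low and high (top ~1%) gates set on anti-HA fluorescence for expression and streptavidin fluorescence for reagent binding. Each polyreactivity label reflects the gate a clone came from. Genes were amplified by colony PCR, sequenced by MiSeq 2 × 250 and filtered by CDR length.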

Sequence | polyreactivity (PSR sort gate)
QVQLVDSGGGLVQAGGSLRLSCAASGFTFYRYAMGWYRPAPGKERELVAGITGSGGNTYYADSVKGRFTISRDNAKNTVYLQMNSLKPEDTAVYYCAAEDYVGWYNFEYWGQGNQVTVSS | high polyreactivity
QVQLVDSGGGLVQAGGSLRLSCAASGGTFDWYTMGWYRQAPGKERELVADITSGGSTYYADSVKGRFTISRDNAKNTVYLQMNSLKPEDTAVCYCATTVYSTSGYPYDYWGQGTQVTVSS | high polyreactivity
QVQLVDSGGGLVQAGGSLRLSCAASGITFRYYAMGWYRQAPGKERELVAAITRGGRTNYADSVKGRFTISRDNAKNTVYLQKNSLKPEETAVYYCATGRDSNFGNSYYYWGQGTQVTVSS | high polyreactivity
QVQLVDSGGGLVQAGGSLRLSCAASGLTFSTYAKGWYRQAPGTERELVAVIRRTGSTYYADSVKGRFTISRDNAMNTVYLHMNGLKPEDNAVYYFATARRHVSGYDFWGQCTQVTVSS | high polyreactivity
QVQLVDSGGGLVQAGGSLRLSCAASGRIFGYNAMGWSRQAPGKERELVAAITSDARTNYADSVKGRFTISRDNAKNTVYLQMISLKPEDTAVYYCAARRYPPRMDYWGHGTQVTVSS | high polyreactivity
QVQLVDSGGGLVQAGGSLRLSCAASGRIFPYYAMGWYRQAPGKERELVAAISSGGSTKYADSVKGRFTISRDNAKNTVYLQMNSLKPEDTAVYYCAKDPFPWALFDYWGQGTLVTVSS | low polyreactivity
QVQLVDSGGGLVQAGGSLRLSCAASGRIFRWNAMGWYRQAPGKERELVAVISSGGSTNYADSVKGRFTISRDNAKNTVYLQMNSLKPEDTAVYYCAKGLIRYSHLDYWGQGTQVTVSS | low polyreactivity
QVQLVDSGGGLVQAGGSLRLSCAASGRIFYTNAMGWYIQEPGKERELVAAIDYSDSTTYYADSVKGRFTISRDNAKNTVYLQMNSLKPEDTAVYYCAAESYLYTVTFEYWGQGTQVTVSS | high polyreactivity
QVQLVDSGGGLVQAGGSLRLSCAASGRILYANAMGWYRQAPGKERELVAAIRYSDDSTYYADSVKGRFTISRDNAKNTVYLHMNSLKPEDTAVYYCNADYLRWDIWYWHGYDYWGQGTQVTVSS | high polyreactivity
QVQLVDSGGGLVQAGGSLRLSCAASGRIVELYAMGGYRQAPGKEREMVAVITNGGSTYYADSVKGRFTISRDNAKNTVYLQMNSLKPEDTAFYFCNARRGYNRVGGSYGYWGQGTQVTVSS | low polyreactivity
QVQLVDSGGGLVQAGGSLRLSCAASGRNFSPYTMGWYRQAPGKVREMVAAIRSGDGRTYYADSVKGRFTISRDNAKNTVYLQMNSLKQEDTAVYYCAARRGKVYVSGNGYWGQGTQVTVSS | high polyreactivity
QVQLVDSGGGLVQAGGSLRLSCAASGRTFGRYTMGWYRQAPGKERELVAAITYSGGSTYYADSVKGRFTISRDNAKNTVYLQMNSLKPEDTAVYYCAAEWVYDWYRYGYWGQGTQVTVSS | low polyreactivity
QVQLVDSGGGLVQAGGSLRLSCAASGRTFGVNTMGWYRQAPGKERELVAAISWSGGRTYYADSVKGRFTISRDNAKNTVYLQMNSLKPEDTAVYYCAASWYSRASLYDYWGQGTQVTVSS | high polyreactivity
QVQLVDSGGGLVQAGGSLRLSCAASGRTFPFYAKGLSRQATGKERELVAVITWRGSNTFADSVKGRFTISRDNAKNTVFLQMNSLKPEDTAVYYCAADAWRSYGYRAYDYWGQGTQVTVSS | high polyreactivity
QVQLVDSGGGLVQAGGSLRLSCAASGRTFRGNVMGWYRQAPGKEREFVAAITKSDGSTYYADSVKGRFTISRDNAKNTVYLQKNSLKPEDTAVYYCAARTARTGWPWFRYDYWGQGTQVTVSS | low polyreactivity
QVQLVDSGGGLVQAGGSLRLSCAASGRTFSPYMGWYRQAPGKEREFVAAISKSGGRTYYADSVKGRFTISRDNAKNTVYVQMNSLKPEDTAVYYCAAGAWRGPYSGYYYWGQGTQVTVSS | low polyreactivity
QVQLVDSGGGLVQAGGSLRLSCAASGRTFYYNTMGWYRQAPGKERELVAAITYRGGRTYYADSVKGRFTISRDNAKNTVYLQMNSLKPEDTAVYYCAADWRGPGRTYKINKYDYWGQGTQVTVSS | high polyreactivity

— the nanobody polyreactivity screen of Harvey et al. (2022)
